Measured values: the supplement of paper PMC9233669
Fewer inactive variants are shown than the library holds.

Tests used:
biotinyl-Phe-oxazolone = experiment: self-aminoacylation, catalytic enhancement (BFO) (fold over background); higher = more active; k-Seq, kA / k0A0; sequences stand for … in GGGAAUGGAUCCACAUCUACGAAUUC…UUCACUGCAGACUUGACGAAGCUG
Procedure, shortened: (§1)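 Mutagenized RNA pools with a 21-nt variable region (0.43 μM) reacted with each biotinyl-aminoacyl-oxazolone at 2–1250 μM. Reactions ran in 50 μL HEPES/NaCl/KCl/MgCl2/CaCl2 buffer with 5% acetonitrile, pH 6.9–7.0, for 90 minutes at room temperature. Streptavidin-captured RNA was quantified by triplicate qPCR and Illumina sequencing, and per-sequence fraction reacted was fit to a pseudo-first-order model with 1000 bootstraps. Catalytic enhancement is median kA divided by the uncatalyzed rate, the low-activity peak of a bimodal Gaussian fit.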

biotinyl-Ile-oxazolone = experiment: self-aminoacylation, catalytic enhancement (BIO) (fold over background); higher = more active; k-Seq, kA / k0A0; sequences stand for … in GGGAAUGGAUCCACAUCUACGAAUUC…UUCACUGCAGACUUGACGAAGCUG
Procedure, shortened: as §1

biotinyl-Met-oxazolone = experiment: self-aminoacylation, catalytic enhancement (BMO) (fold over background); higher = more active; k-Seq, kA / k0A0; sequences stand for … in GGGAAUGGAUCCACAUCUACGAAUUC…UUCACUGCAGACUUGACGAAGCUG
Procedure, shortened: as §1

biotinyl-Val-oxazolone = experiment: self-aminoacylation, catalytic enhancement (BVO) (fold over background); higher = more active; k-Seq, kA / k0A0; sequences stand for … in GGGAAUGGAUCCACAUCUACGAAUUC…UUCACUGCAGACUUGACGAAGCUG
Procedure, shortened: as §1

biotinyl-Leu-oxazolone = experiment: self-aminoacylation, catalytic enhancement (BLO) (fold over background); higher = more active; k-Seq, kA / k0A0; sequences stand for … in GGGAAUGGAUCCACAUCUACGAAUUC…UUCACUGCAGACUUGACGAAGCUG
Procedure, shortened: as §1

biotinyl-Trp-oxazolone = experiment: self-aminoacylation, catalytic enhancement (BWO) (fold over background); higher = more active; k-Seq, kA / k0A0; sequences stand for … in GGGAAUGGAUCCACAUCUACGAAUUC…UUCACUGCAGACUUGACGAAGCUG
Procedure, shortened: as §1

Row | Sequence | self-aminoacylation (biotinyl-Phe-oxazolone) | self-aminoacylation (biotinyl-Ile-oxazolone) | self-aminoacylation (biotinyl-Met-oxazolone) | self-aminoacylation (biotinyl-Val-oxazolone) | self-aminoacylation (biotinyl-Leu-oxazolone) | self-aminoacylation (biotinyl-Trp-oxazolone)
1 | CUACCUCAAACAAGCGGUCUG [Fam1A.1 aminoacylation ribozyme variant] | 5.07 | 1.25 | 1.57 | 0.97 | 0.828 | 1.11
2 | CUACUGCAAACAAUCGAUCUG [Fam1A.1 aminoacylation ribozyme variant] | 0.699 | 0.705 | 0.937 | 0.732 | 0.663 | 0.679
3 | CAACACUUCAAGCAAUUGGUC [Fam1B.1 aminoacylation ribozyme variant] | 1.42 | 0.98 | 0.866 | 0.904 | 0.775 | 0.958
4 | AUUCACCUAGGUCACCGGGGG [Fam2.2 aminoacylation ribozyme variant] | 21.4 | 3.62 | 3.37 | 3.51 | 3.12 | 4.38
5 | CCACACUUCAAGGAAUCGGGC [Fam1B.1 aminoacylation ribozyme variant] | 1.44 | 2.98 | 3.01 | 2.85 | 2.86 | 3.41
6 | ACGUUUGCUAACAGUCGCAAG [Fam3.1 aminoacylation ribozyme variant] | 4.28 | 1.5 | 1.53 | 1.29 | 1.97 | 1.94
7 | CCAGACUUCAAGCAAACGGUC [Fam1B.1 aminoacylation ribozyme variant] | 0.824 | 0.706 | 0.591 | 0.811 | 0.628 | 0.814
8 | CUACUUCAAACAAUCGACCUG [Fam1A.1 aminoacylation ribozyme variant] | 1.6 | 0.608 | 0.545 | 0.636 | 0.45 | 0.661
9 | AUCACCCCGGUCAUCGAGUGA [Fam2.1 aminoacylation ribozyme variant] | 52.6 | 4.51 | 8.33 | 4.47 | 10.2 | 9.73
10 | CCGCACUUCAAGCAAUCGGUG [Fam1B.1 aminoacylation ribozyme variant] | 55.1 | 5.07 | 7.36 | 5.59 | 10.3 | 8.54
11 | CUACUUCAGACAAUCGGUCCG [Fam1A.1 aminoacylation ribozyme variant] | 0.81 | 0.811 | 1 | 0.695 | 1.01 | 1.38
12 | AUUAGACUGGUCAUCGAGUGA [Fam2.1 aminoacylation ribozyme variant] | 7.88 | 3 | 4.4 | 2.56 | 3.73 | 4.81
13 | GUUCACCUCGGUCAUCGGGUG [Fam2.2 aminoacylation ribozyme variant] | 28.6 | 3.61 | 4.1 | 4.29 | 4.52 | 3.77
14 | CCACACUCCAAGCAAUAGGUC [Fam1B.1 aminoacylation ribozyme variant] | 1.06 | 0.741 | 0.686 | 0.845 | 0.569 | 0.637
15 | AUUCCCCUAAGUCAUCGGGUG [Fam2.2 aminoacylation ribozyme variant] | 498 | 38.6 | 59.1 | 37.9 | 85.8 | 62.2
16 | AUGACCCUGCUCAUCGAGUGA [Fam2.1 aminoacylation ribozyme variant] | 1.52 | 1.36 | 1.83 | 1.43 | 1.95 | 2.47
17 | CUACUUCAUACAACCGGUCUG [Fam1A.1 aminoacylation ribozyme variant] | 0.504 | 0.925 | 0.621 | 0.84 | 0.751 | 0.415
18 | CCACACUUCAAACAAUCAGUC [Fam1B.1 aminoacylation ribozyme variant] | 42.2 | 0.947 | 0.771 | 1.06 | 1.16 | 12.4
19 | AAGUUUGCAAAUAUUCGCAAG [Fam3.1 aminoacylation ribozyme variant] | 1.3 | 0.999 | 1.25 | 1.03 | 1.09 | 1.35
20 | AAGUUUGCGUAUAGUCGCAAG [Fam3.1 aminoacylation ribozyme variant] | 1.22 | 0.888 | 1.21 | 0.996 | 0.753 | 1.23
21 | AUUACCCCGUUCAUCGAGUGA [Fam2.1 aminoacylation ribozyme variant] | 7.48 | 2.28 | 4.47 | 2.77 | 3.55 | 5.03
22 | GCACACUUCGAGCAAUCGGUC [Fam1B.1 aminoacylation ribozyme variant] | 2.2 | 1.87 | 1.9 | 1.81 | 1.46 | 2.86
23 | AUUACCCUGGUCUACGAGUGA [Fam2.1 aminoacylation ribozyme variant] | 25.5 | 3.67 | 6.17 | 3.68 | 6.37 | 7.19
24 | CCAGACUUCAAGCAGUCGGUC [Fam1B.1 aminoacylation ribozyme variant] | 1.4 | 1.48 | 1.1 | 1.3 | 1.77 | 1.39
25 | CCGCAAUUCAAGCAAUCGGUC [Fam1B.1 aminoacylation ribozyme variant] | 18.7 | 1.94 | 1.73 | 2.12 | 1.9 | 14.2
26 | CUAUUUCAAACAUUCGGUCUG [Fam1A.1 aminoacylation ribozyme variant] | 0.835 | 1.18 | 1.3 | 1.3 | 1.16 | 1.16
